One test concerns cyno BCMA-Fc. In words: ELISA binding to recombinant cyno BCMA-Fc. Conditions: 5 ug/ml to 0.1 ug/ml antibody. The method, then:
Chimeric CA8 antibodies were tested for binding to human BCMA and cyno BCMA expressed as Fc fusions. Human BCMA-Fc and cyno BCMA-Fc were coated to ELISA plates and the plates were blocked using BSA to reduce non specific binding. CA8 chimeric antibodies were added in a concentration range from 5 ug/ml to 0.1 ug/ml to the human and cyno BCMA coated ELISA plates. Any bound human chimeric CA8 antibody was detected using anti-human IgG HRP conjugated secondary antibody as appropriate. HRP substrate (TMB) was added to develop the ELISA.
(In an ELISA, binding on a coated surface is turned into a signal by an enzyme label.)

Test [1] relates to multiple myeloma cell lines H929, OPM-2, JJN-3 and U266. In words: FACS binding curve of chimeric CA8 to multiple myeloma cells. On the set-up: species or system human. Conditions: varying concentrations, 20 minutes at RT. On the procedure:
A panel of multiple myeloma cell lines were used to determine the binding of chimeric CA8. […] Cells were then washed with FACS buffer (PBS+0.5% BSA+0.1% sodium azide) to remove unbound antibody. Cells were incubated with a secondary PE labelled anti-human IgG antibody for 15 minutes at RT and then washed with FACS buffer to remove unbound antibody. Cells were analysed by FACS and mean fluorescence intensity (MFI) values measured to determine binding.

Test [2] addresses T1, ARH77-hBCMA 10B5 BCMA expressing transfectant cells (Homo sapiens, UniProt Q02223).
T1 construct: expressed in transfected cells; host or cells: ARH77 (clone 10B5)
T1 sequence (Q02223 1-184): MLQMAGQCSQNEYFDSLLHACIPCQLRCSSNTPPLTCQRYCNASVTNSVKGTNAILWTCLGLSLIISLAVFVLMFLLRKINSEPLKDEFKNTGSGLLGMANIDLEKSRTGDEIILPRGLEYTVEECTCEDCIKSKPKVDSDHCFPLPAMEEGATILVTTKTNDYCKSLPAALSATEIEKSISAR
In words: FACS binding of humanised CA8 to BCMA transfected cells. Conditions: varying concentrations, 20 minutes at RT. The method, then: ARH77-hBCMA 10B5 BCMA expressing transfectant cells or H929 cells were stained with either chimeric CA8 or humanised variants of CA8 designated J6M0, J6M1, J6M2, J9M0, J9M1, J9M2 at varying concentrations for 20 minutes at RT. Cells were then washed with FACS buffer (PBS+0.5% BSA+0.1% sodium azide) to remove unbound antibody. Cells were incubated with a secondary PE labelled anti-human IgG antibody for 15 minutes at RT and then washed with FACS buffer to remove unbound antibody. Cells were analysed by FACS and mean fluorescence intensity (MFI) values measured to determine binding.

The next test has as its target T2, Human in house BCMA (Homo sapiens, UniProt Q02223).
T2 construct: CD33 signal peptide (N); TEV site (internal); Fc (C); made in house
Briefly: ProteOn analysis of CA8 chimeric and humanised constructs, human in house BCMA. It is filed as binding. Conditions: ProteOn, 25° C.; for ka: in M-1s-1 (unit assumed); for kd: in s-1 (unit assumed). Put shortly:
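SPR at 25 °C in HBS-EP: CA8 antibodies captured on Protein A-coated chip, recombinant BCMA injected at 256, 64, 16, 4, 1 nM with buffer double-referencing; NaOH regeneration. Kinetics from 1:1 model fit; run 2 also used commercial human BCMA.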

The target of a further test is T3, Human commercial BCMA (Homo sapiens, UniProt Q02223).
T3 construct: purchased US Biological B0410
T3 sequence (Q02223 1-184): T1 sequence (Q02223 1-184)
In words: BIAcore analysis of J6M0 and J9M0, human commercial BCMA. It is filed as binding. On the procedure:
Protein A was immobilised on a CMS chip (GE Healthcare, Cat No: BR-1005-30) by primary amine coupling and this surface was then used to capture the antibody molecules. Recombinant human BCMA (US Biological, B0410) was used as analyte at 256 nM, 64 nM, 16 nM, 4 nM and 1 nM. Regeneration of the capture surface was carried out using 50 mM NaOH. All binding curves were double referenced with a buffer injection (i.e. 0 nM) the data was fitted to the using the 1:1 model inherent to T100 evaluation software. The run was carried out at 25° C. and 37° C. for experiment 1 and only 37° C. for experiment 2 using HBS-EP as the running buffer.

Test [3] deals with human multiple myeloma cell lines NCI-H929, U266-B1, JJN3 and OPM2. Briefly: ADC activity of chimeric CA8 ADCs, 4 multiple myeloma cell lines (Cell titre Glo, 96 hours). Conditions: 1 ug/ml to 5 ng/ml, all 4 cell lines. It is filed as cell-based. On the procedure:
FIG. 11: Viability assay dose response curves—Figure showing dose response curves in a cell viability assay for chimeric CA8 antibody, chimeric CA8-vcMMAE and chimeric CA8-mcMMAF antibody-drug conjugates in human multiple myeloma cell lines NCI-H929, U266-B1, JJN3 and OPM2. Antibody was added to the cells and the number of viable cells after 96 hours measured using CelltiterGlo. Data points represent the mean of triplicate CellTiterGlo measurements. Error bars represent standard error.
Multiple Myeloma cell lines were treated with chimeric CA8 antibody-drug conjugates to determine the ADC concentrations required for growth inhibition and death.
The antibody drug conjugates tested were added to wells containing multiple myeloma cells at concentrations ranging from 1 ug/ml to 5 ng/ml. The plates were incubated at 37° C. for 96 hours at which point viable cells were quantitated using Cell titre Glo.

Experimental findings from US11419945B2, “Antigen binding proteins” (Glaxo Group Limited, priority 2011, dated 2022) are described below.

T2 sequence (Q02223 with tags, fused parts or gaps limits assumed): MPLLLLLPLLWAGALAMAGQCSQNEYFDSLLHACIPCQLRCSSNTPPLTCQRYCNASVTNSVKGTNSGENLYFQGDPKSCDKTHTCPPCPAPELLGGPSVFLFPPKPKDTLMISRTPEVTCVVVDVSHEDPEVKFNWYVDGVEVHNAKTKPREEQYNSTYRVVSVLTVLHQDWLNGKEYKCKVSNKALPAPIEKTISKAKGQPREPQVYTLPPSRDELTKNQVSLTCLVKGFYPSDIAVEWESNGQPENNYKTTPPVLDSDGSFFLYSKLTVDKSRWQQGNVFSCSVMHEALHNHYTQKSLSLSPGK
Sequence of cyno BCMA-Fc (as listed by the source): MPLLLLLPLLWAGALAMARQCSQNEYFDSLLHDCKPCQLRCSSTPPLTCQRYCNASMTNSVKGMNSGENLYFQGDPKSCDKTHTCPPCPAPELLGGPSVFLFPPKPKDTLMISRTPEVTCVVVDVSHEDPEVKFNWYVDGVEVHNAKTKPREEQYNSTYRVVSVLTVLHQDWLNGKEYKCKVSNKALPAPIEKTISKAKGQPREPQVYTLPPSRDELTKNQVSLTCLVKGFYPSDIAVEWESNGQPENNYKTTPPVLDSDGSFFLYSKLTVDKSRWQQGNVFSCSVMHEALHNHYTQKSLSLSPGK

B1: CA8 Chimera: chimeric anti-BCMA antibody: murine CA8 VH (SEQ ID NO:7) and VL (SEQ ID NO:9) on human γ1 and kappa constant regions (antibody, V domains shown)
VH: EVQLQQSGAVLARPGASVKMSCKGSGYTFTNYWMHWVKQRPGQGLEWIGATYRGHSDTYYNQKFKGKAKLTAVTSTSTAYMELSSLTNEDSAVYYCTRGAIYNGYDVLDNWGQGTLVTVSS
VL: DIQLTQTTSSLSASLGDRVTISCSASQDISNYLNWYQQKPDGTVELVIYYTSNLHSGVPSRFSGSGSGTDYSLTIGYLEPEDVATYYCQQYRKLPWTFGGGSKLEIKR
modifications: human IgG1 and kappa constant regions; mus musculus
As for B1, the “binding to recombinant cyno BCMA (ELISA)” value in the test on cyno BCMA-Fc (listed as Chimeric CA8) is “binds to recombinant human and cyno BCMA”; in the test with cyno BCMA-Fc (listed as human chimeric CA8 antibodies), “bind to human and cyno BCMA proteins equally”. Further, the “binding to multiple myeloma cell lines by FACS (MFI)” value in test [1] is reported as “bound to multiple myeloma cell lines H929, OPM-2, JJN-3 & U266 in a dose dependent manner”. The “dose dependent binding to ARH77-hBCMA 10B5 cells by FACS (MFI)” value in test [2] is given as “bound”. The ka worked out at 2.41E+05 with Human in house BCMA (Run 1, Human in house BCMA); 2.51E+05 with Human in house BCMA (Run 2, Human in house BCMA); 1.88E+06 with Human commercial BCMA (25° C., Experiment 1, in M-1s-1 (unit assumed)); 1.72E+07 in the test with Human commercial BCMA (37° C., Experiment 1, in M-1s-1 (unit assumed)); 1.88E+07 with Human commercial BCMA (37° C., Experiment 2, in M-1s-1 (unit assumed)). The kd is recorded as 1.25E−04 with Human in house BCMA (Run 1, Human in house BCMA); 1.03E−04 with Human in house BCMA (Run 2, Human in house BCMA); 2.63E−04 with Human commercial BCMA (25° C., Experiment 1, in s-1 (unit assumed)); 8.72E−04 with Human commercial BCMA (37° C., Experiment 1, in s-1 (unit assumed)); 1.04E−03 in the test with Human commercial BCMA (37° C., Experiment 2, in s-1 (unit assumed)). The growth inhibitory activity entry in test [3] is reported as “no significant growth inhibitory activity”.
